# Legend:
# grip1_mouse Grip1 = grip1_mouse Grip1 (UniProt Q925T6)
# grip2_rat Grip2 = grip2_rat Grip2 (UniProt Q9WTW1)
# Sequence of grip2_rat Grip2 (Q9WTW1 whole entry): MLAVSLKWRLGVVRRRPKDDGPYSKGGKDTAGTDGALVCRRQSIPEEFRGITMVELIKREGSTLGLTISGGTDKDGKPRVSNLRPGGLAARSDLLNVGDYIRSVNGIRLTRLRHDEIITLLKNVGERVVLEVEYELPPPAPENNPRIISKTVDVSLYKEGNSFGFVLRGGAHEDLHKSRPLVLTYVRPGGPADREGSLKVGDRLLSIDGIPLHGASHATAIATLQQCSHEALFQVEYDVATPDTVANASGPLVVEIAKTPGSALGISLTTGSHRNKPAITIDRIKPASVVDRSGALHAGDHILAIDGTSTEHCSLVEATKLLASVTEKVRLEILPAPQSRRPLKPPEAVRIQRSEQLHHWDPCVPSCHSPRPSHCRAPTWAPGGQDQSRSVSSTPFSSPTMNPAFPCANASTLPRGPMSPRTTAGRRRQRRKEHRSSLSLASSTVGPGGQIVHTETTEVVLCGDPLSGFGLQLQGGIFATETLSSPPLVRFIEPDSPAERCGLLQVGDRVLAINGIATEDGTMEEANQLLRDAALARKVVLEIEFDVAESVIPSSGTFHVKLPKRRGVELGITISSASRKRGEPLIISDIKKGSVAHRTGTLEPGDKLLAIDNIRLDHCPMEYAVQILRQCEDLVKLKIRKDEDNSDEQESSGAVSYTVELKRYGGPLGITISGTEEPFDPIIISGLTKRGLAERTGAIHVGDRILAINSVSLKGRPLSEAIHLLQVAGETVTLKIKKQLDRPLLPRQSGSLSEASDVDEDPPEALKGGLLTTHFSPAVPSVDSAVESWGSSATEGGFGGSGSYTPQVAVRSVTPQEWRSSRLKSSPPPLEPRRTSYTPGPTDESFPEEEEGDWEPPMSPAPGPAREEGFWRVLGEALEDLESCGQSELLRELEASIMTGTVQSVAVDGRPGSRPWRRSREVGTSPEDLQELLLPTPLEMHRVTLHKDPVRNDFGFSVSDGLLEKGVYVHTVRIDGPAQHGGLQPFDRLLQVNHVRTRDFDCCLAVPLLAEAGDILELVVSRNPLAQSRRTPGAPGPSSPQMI
# Sequence of grip1_mouse Grip1 (Q925T6 whole entry): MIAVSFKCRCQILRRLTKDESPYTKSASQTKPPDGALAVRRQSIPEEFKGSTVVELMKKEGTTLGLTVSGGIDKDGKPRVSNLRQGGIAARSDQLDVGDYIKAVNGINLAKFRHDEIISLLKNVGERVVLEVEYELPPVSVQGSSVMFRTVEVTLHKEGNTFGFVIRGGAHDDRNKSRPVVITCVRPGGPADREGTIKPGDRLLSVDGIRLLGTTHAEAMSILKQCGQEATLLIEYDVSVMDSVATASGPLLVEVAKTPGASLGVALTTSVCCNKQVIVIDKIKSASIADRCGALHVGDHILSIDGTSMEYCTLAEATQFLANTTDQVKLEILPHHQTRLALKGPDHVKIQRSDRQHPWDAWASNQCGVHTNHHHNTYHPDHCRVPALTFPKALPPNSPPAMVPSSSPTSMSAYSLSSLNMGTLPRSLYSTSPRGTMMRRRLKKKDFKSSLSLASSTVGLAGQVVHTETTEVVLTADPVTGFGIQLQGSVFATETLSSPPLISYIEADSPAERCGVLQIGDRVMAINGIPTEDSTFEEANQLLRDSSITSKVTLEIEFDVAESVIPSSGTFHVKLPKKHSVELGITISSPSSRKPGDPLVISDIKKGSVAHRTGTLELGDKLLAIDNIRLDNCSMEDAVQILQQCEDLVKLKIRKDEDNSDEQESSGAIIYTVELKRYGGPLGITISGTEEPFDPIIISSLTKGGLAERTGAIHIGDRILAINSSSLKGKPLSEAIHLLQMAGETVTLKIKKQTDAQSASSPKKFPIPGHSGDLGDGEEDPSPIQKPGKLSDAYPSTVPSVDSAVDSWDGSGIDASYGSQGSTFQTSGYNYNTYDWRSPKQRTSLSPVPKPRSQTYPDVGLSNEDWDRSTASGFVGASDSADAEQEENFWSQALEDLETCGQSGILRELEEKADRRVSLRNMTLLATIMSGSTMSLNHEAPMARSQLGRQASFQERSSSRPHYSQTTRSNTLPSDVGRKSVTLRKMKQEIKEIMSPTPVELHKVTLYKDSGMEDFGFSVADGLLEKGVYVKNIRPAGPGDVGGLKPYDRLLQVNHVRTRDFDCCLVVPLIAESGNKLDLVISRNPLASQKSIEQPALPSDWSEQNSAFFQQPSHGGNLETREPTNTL
Substance,effect of a mutation on the interaction (grip1_mouse Grip1),effect of a mutation on the interaction (grip2_rat Grip2)
"Chondroitin sulfate proteoglycan 4 (Mus musculus), Q8VHY0 V2327G",disrupting interaction,disrupting interaction
"Chondroitin sulfate proteoglycan 4 (Mus musculus), Q8VHY0 Y2325G",disrupting interaction,disrupting interaction
"Chondroitin sulfate proteoglycan 4 (Mus musculus), Q8VHY0 W2326G",disrupting interaction,disrupting interaction

# Reference: IntAct's records for PubMed 12458226
